Results on four molecules are retold here after patent publication US20080267971A1 (published 2008).

B1: mAb 5.41.1 (antibody, V domains shown)
VH: EVQLVESGGGLVQPGGSLRLSCAASGFTFSSYWMSWVRQAPGKGLEWVANIKEDGSEKYYVDSVKGRFTISRDNAKNSLYLQMNSLRAEDTAVFYCARDRSSGFFDYWGQGTLVTVSS
VL: EIVMTQSPATLSVSPGERATLSCRASQSVSSNLAWYQQKPGQAPRFLIYGASTRATGIPARFSGSGSGTEFTLTISSLQSEDFAVYYCQQYNHWWTFGQGTKVEIKR
notes: Human hybridoma IgG (XenoMouse); also called x5.41
B2: mAb 5.16.3 (antibody, V domains shown)
VH: QVQLVQSGAEVKKPGASVKVSCKASGYTFTGFYMYWVRQAPGQGLEWMGWINPNSSGTNHAQKFQGRVTMTRDTSISTAYMELSRLRSDDTAVYYCARDQDIATAGPFDYWGQGTLVTVSS
VL: B1 VL with F46L, Y49F, H93N, Q99R
notes: Human hybridoma IgG (XenoMouse); also called x5.16
B3: human Angiopoietin-1 (ligand)
chain: SNQRRSPENSGRRYNRIQHGQCAYTFILPEHDGNCRESTTDQYNTNALQRDAPHVEPDFSSQKLQHLEHVMENYTQWLQKLENYIVENMKSEMAQIQQNAVQNHTATMLEIGTSLLSQTAEQTRKLTDVETQVLNQTSRLEIQLLENSLSTYKLEKQLLQQTNEILKIHEKNSLLEHKILEMEGKHKEELDTLKEEKENLQGLVTRQTYIIQELEKQLNRATTNNSVLQKQQLELMDTVHNLVNLCTKEVLLKGGKREEEKPFRDCADVYQAGFNKSGIYTIYINNMPEPKKVFCNMDVNGGGWTVIQHREDGSLDFQRGWKEYKMGFGNPSGEYWLGNEFIFAITSQRQYMLRIELMDWEGNRAYSQYDRFHIGNEKQNYRLYLKGHTGTAGKQSSLILHGADFSTKDADNDNCMCKCALMLTGGWWFDACGPSNLNGMFYTAGQNHGKLNGIKWHYFKGPSYSLRSTTMMIRPLDF
notes: Bought recombinant protein (R&D Systems 293-AN-025/CF) or supernatant of transfected 293F cells; also called Ang-1; recombinant Ang-1
B4: mAb 6.3.1 (antibody, V domains shown)
VH: QVQLVQSGAEVKKPGASVKVSCKASGYTFTGYFMHWVPQAPGQGLEWMGWINPNSGGTNYAQNFQGRVTMTRDTSISTAYMELSRLRSDDTPVYYCARDPWQNWNSYFDYWGQGTLVTVSS
VL: DIQMTQSPSSLSASVGDRVTITCRASQSIRSYLNWYQQKPGKAPKVLIYAASSLQSGVPSRFSGSGSGTDFTLTISSLQPEDFATYYCQQSYSTLCSFGQGTKLEIKR
notes: Human hybridoma IgG (XenoMouse); also called x6.3

The assay “human Angiopoietin-1” deals with B3. Briefly: capture ELISA. As to the method: The binding of the top 27 human monoclonal antibodies was detected with a HRP-conjugated goat anti-human antibody, followed by colorimetric horseradish peroxidase substrate (Enhanced K-Blue TMB substrate Neogen Corporation). The absorbance of each well of the ELISA plates was measured at 450 nm on a microplate autoreader.
Background: ELISA stands for enzyme-linked immunosorbent assay.

The next assay addresses T1, mouse Angiopoietin-2 (mouse, UniProt O35608 19-496).
T1 construct: Used as conditioned medium of transfectants; also called mAng-2; mouse Ang-2
T1 sequence: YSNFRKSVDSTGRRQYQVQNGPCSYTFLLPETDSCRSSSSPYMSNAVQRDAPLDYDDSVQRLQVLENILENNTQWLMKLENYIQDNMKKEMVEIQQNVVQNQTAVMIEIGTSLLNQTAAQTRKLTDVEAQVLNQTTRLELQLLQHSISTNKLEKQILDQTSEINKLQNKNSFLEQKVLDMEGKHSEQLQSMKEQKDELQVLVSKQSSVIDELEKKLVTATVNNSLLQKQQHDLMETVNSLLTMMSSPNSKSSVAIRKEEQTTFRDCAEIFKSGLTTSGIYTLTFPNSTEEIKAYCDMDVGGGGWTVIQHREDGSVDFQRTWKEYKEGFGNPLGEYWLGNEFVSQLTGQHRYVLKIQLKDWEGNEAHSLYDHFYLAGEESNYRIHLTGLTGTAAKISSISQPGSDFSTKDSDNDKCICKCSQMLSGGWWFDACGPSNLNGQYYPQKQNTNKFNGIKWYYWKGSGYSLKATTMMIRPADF
Briefly: ELISA, recombinant mouse Ang-2.

The target in assay [1] is T2, recombinant human Tie2/Fc fusion protein (human, UniProt Q02763 23-745).
T2 construct: Bought fusion protein; also called hTie2/Fc; soluble Tie2/Fc
Briefly: FACS competition: binding of His-tagged recombinant human Ang-1 to Tie2 on HEK293F/Tie2 transfectants, soluble Tie2/Fc titrated, n = 3. As to the method: Cell suspension of 4 million cells/mL in FACS Buffer were prepared, and then aliquoted to a 96-well polypropylene plate with 50 ul per well. […] Cells were washed by centrifuging the plate at 1,200 rpm for 5 minutes, removing the supernatant by aspirating, and resuspending the cells with 200 ul per well of FACS Buffer. Washing procedures were repeated twice. The cells were then suspended with 100 ul of mouse Anti-6×-Histidine antibody diluted to 2 ug/ml in FACS Buffer, and incubated at room temperature for 30 minutes. After washing, the cells were suspended in 100 ul of PE-conjugated goat anti-mouse-IgG, which was diluted 1:100 in FACS Buffer, for incubation at room temperature for 30 minutes. The volume of the samples were brought to 300 ul with FACS Buffer, and measured with FACS Calibur.

In assay [2] the target is T3, human Angiopoietin-2 (human, UniProt O15123 19-496).
T3 construct: Mostly bought recombinant protein (R&D Systems 623-AM/CF, 623-AN; biotinylated BT623) or supernatant of transfected 293F cells; also called Ang-2; rhAng-2
T3 sequence: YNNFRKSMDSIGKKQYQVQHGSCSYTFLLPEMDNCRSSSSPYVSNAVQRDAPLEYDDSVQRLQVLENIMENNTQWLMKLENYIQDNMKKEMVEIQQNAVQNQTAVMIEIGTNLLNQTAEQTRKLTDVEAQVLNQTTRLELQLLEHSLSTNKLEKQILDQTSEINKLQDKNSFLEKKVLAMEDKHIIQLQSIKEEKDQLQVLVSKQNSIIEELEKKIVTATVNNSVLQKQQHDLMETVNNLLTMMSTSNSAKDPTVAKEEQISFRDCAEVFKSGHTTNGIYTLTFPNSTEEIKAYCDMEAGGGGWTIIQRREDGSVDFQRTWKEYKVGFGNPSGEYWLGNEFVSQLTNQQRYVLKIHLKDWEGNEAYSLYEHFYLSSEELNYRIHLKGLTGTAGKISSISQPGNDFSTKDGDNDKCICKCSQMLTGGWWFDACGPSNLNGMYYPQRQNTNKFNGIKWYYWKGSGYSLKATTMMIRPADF
Briefly: inhibition of rhAng-2 binding to its receptor.

Assay [3] addresses T3, human Angiopoietin-2. Briefly: Biacore, mAb captured. As to the method: (§1) The label-free surface plasmon resonance (SPR), or Biacore, was utilized to measure the antibody affinity to the antigen. For this purpose, a high-density goat anti-human antibody surface over a CM5 Biacore chip was prepared using routine amine coupling. All the purified mAbs were diluted to approximately 8 μg/ml in HBS-P running buffer containing 100 μg/ml BSA and 10 mg/mL carboxymethyldextran. Each mAb was captured on a separate surface using a 42-second contact time, and a 5-minute wash for stabilization of the mAb baseline.
(§2) Data were fit globally to a 1:1 interaction model to determine the binding kinetics.
(SPR reads the build-up and loss of mass on a sensor chip optically.)

In assay [4] the target is T4, Human Ang-1/2 BsmI chimeric molecule (human).
T4 chain: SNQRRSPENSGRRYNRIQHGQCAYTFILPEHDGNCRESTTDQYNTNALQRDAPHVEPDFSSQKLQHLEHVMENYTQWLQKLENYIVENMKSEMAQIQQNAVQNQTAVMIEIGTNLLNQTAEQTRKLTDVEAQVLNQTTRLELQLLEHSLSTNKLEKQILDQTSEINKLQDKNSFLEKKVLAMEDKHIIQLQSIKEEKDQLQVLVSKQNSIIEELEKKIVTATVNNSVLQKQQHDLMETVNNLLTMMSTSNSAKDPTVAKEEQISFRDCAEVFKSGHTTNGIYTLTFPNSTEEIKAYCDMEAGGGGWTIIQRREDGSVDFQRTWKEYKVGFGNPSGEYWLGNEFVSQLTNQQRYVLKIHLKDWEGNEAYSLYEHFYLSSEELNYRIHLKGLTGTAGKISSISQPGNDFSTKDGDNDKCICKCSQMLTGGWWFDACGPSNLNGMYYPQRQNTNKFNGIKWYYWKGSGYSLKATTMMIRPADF
Put plainly: ELISA.

The target in a further assay is T5, human Ang-2443 (human, UniProt O15123 19-496).
T5 construct: Splice variant missing amino acids 96-148; supernatant of transfected 293F cells
T5 sequence: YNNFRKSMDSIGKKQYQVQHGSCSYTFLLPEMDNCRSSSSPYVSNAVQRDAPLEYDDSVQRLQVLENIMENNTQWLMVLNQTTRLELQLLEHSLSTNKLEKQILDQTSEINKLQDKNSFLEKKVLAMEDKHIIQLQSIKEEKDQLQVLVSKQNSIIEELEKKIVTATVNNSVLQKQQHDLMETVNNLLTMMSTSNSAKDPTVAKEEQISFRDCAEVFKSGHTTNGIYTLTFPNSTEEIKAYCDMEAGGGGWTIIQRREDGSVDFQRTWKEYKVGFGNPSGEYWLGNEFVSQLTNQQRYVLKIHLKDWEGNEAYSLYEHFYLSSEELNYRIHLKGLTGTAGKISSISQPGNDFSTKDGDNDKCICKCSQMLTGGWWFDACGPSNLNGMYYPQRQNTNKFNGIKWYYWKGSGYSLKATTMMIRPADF
Put plainly: ELISA.

A further assay deals with T6, human Ang-2 V345M (human, UniProt O15123 19-496).
T6 sequence: T3 sequence with V326M
Put plainly: ELISA.

In a further assay the target is T7, human Ang-2 H375Q (human, UniProt O15123 19-496).
T7 sequence: T3 sequence with H356Q
Briefly: ELISA.

The target in assay [5] is T3, human Angiopoietin-2. Put plainly: Biacore; kd held constant (*). On the procedure: as §1, §2

Where a chain is given by its changes, count along the chain named.

T2 sequence (Q02763 23-745 limits assumed): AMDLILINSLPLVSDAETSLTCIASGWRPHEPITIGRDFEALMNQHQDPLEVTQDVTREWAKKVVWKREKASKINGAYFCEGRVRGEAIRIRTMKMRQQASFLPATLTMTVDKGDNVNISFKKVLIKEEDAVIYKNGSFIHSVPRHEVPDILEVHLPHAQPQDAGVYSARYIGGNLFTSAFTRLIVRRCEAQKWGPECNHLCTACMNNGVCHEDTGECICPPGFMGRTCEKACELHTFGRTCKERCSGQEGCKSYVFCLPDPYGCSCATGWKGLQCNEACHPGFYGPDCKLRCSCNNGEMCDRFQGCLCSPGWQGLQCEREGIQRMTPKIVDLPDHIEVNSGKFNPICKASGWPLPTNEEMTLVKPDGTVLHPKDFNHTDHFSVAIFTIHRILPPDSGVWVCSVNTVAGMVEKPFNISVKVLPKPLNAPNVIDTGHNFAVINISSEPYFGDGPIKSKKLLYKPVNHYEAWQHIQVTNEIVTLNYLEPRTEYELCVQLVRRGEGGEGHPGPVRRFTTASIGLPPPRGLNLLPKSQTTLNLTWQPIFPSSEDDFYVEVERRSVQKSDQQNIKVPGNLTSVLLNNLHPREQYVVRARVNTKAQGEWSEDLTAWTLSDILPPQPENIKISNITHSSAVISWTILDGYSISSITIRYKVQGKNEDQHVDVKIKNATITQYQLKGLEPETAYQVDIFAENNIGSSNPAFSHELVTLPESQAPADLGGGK

With B1, the binding result with human Angiopoietin-1 and with mouse Angiopoietin-2 was “no binding” in each case.

Regarding B2, the binding result in the assay with human Angiopoietin-1 and with mouse Angiopoietin-2 was “no binding” in each case.

As for B3, in assay [1], the binding result was “binds”.

One may read the Kd as the concentration at which binding is half-saturated. Low readings indicate higher affinity, high ones lower affinity. In general, kon refers to a measure of how fast the partners come together. As usually defined, the koff is the rate constant with which the complex falls apart. Read a high koff as a short-lived complex. As to B4, the binding result with human Angiopoietin-1 is given as “no binding”. Moreover, in the assay with human Angiopoietin-2 [2], the “OD650 in inhibition assay” value was 0.0617 OD650. In addition, the Kd with human Angiopoietin-2 [3] was not above 0.073 nM. Moreover, in the assay with human Angiopoietin-2 [3], the kon was determined as 140000 M⁻¹ s⁻¹. Further, the “% of binding to human Ang-2” value (in [4]; with human Ang-2443; with human Ang-2 V345M; with human Ang-2 H375Q) was 100% each time. Also, the koff with human Angiopoietin-2 [5] is not above 1e-05 s⁻¹.
